According to patent US20260209301A1, “Galanin-2 Receptor Agonists” (LIFEARC, priority 2022, published 2026):
pEC50: −log10 of the molar value. Non-standard residues stand in square brackets, D forms with d. Residues, ends and D or L forms follow the SMILES beside them. No end group written: not given here. *: point of attachment. Fmoc = O=C(OCC1c2ccccc2-c2ccccc21)*; Cha = N[C@@H](CC1CCCCC1)C(=O)O; AMC = Cc1cc(=O)oc2cc(N*)ccc12

Experiments:
GALR2 [1] = molecular target: T1, GALR2 (Homo sapiens, UniProt O43603); experiment: Calcium assay, CHO GalR2 cells (FLIPR); conditions: for GalR2 activity (calcium assay), linker variants: Table 7; for GalR2 activity (calcium assay), linker variants / GalR2 Calcium, mean pEC50 / GalR2 activity (calcium assay), warhead length: mean +/− standard deviation; for GalR2 activity (calcium assay), linker variants / GalR2 activity (calcium assay), warhead length: highest concentration tested 10 μM; for GalR2 Calcium, mean pEC50: Table 2, n ≥ 3; for GalR2 activity (calcium assay), warhead length: Table 6
T1 sequence (O43603 1-387): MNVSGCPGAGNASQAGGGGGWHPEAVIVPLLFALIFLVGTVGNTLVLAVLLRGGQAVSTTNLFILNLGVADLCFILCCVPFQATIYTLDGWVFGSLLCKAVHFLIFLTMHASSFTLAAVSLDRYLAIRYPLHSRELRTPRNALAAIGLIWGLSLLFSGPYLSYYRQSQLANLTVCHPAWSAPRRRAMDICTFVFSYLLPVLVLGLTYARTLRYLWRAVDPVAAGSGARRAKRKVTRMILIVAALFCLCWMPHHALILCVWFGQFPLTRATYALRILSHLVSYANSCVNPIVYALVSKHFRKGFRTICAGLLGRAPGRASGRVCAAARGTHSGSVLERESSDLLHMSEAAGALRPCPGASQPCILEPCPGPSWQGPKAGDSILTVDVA
Procedure: CHO GalR2 cells were plated at 10,000 cells per well in black clear bottom plates (corning, USA) and incubated overnight at 37° C. with 5% CO2. […] Ligands were prepared at a 5× concentration and added to cells using the FLIPR (Molecular Devices, USA). Baseline was typically 20 seconds before ligand addition. […] For analysis, fluorescence was normalised to pre-addition baseline and peak fluorescence used for all quantification.
In brief, a panel of functional cell-based microtiter-plate assays were developed using recombinant GalR1 and GalR2 receptors stably expressed in CHO cells. […] Nominally this equated to 10 serial (~3fold) dilutions with highest concentrations of 10-1 μM as appropriate.
In addition to generating both potency and efficacy estimates, the latter being expressed relative to native galanin, both G-protein and non-G-Protein signalling pathways were measured.

GalR1 [2] = molecular target: T2, GalR1 (Homo sapiens, UniProt P47211); experiment: cAMP HTRF assay, CHO GalR1 cells; type: cell-based; set-up: expressed in transfected cells; host or cells: CHO (Flp-In, pcDNA5/FRT); conditions: for GalR1 activity (cAMP assay), linker variants: Table 7, highest concentration tested 10 μM; for Emax: read-out: GalR1 cAMP IA (%)
T2 sequence (P47211 1-349): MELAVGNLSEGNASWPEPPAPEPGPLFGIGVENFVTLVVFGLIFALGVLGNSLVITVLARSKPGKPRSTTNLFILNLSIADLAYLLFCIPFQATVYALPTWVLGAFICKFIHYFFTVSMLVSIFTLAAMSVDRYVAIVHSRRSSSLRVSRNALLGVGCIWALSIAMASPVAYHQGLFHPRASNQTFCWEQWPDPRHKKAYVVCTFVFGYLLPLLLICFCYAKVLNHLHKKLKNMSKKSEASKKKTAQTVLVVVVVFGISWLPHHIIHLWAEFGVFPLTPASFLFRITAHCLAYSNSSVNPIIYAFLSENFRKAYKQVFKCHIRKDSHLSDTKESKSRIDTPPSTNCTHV
Procedure: The CAMP dynamic 2 kit (Cisbio International) was used as a competitive immunoassay to measure Homogenous Time-Resolved Fluorescence (HTRF). […] Addition of detection reagent involved adding 5 μl d2 conjugated CAMP followed by 5 μl anti-CAMP cryptate conjugate. The two reagents were not pre-mixed; these were both prepared in cell lysis buffer and incubated at room temperature in the dark for one hour.

mouse GalR2 = molecular target: T3, mouse GalR2 (Mus musculus, UniProt O88854); experiment: Calcium assay at orthologue receptor; type: cell-based
T3 sequence (O88854 1-371): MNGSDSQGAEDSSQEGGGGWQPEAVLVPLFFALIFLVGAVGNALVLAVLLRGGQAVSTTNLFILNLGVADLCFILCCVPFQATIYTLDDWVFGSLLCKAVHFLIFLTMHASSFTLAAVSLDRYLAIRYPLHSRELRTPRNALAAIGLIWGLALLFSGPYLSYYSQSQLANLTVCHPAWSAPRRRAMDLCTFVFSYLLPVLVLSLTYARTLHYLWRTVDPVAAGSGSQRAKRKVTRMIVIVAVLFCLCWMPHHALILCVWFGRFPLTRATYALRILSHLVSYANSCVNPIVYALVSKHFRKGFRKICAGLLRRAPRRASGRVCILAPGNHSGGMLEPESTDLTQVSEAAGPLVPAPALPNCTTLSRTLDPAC
Excerpt: (§1) These species were chosen as they represent potential downstream in vivo models to be used. Within native galanin amino acid residues 1-15 are conserved across species, we would therefore expect the Gal FC fusions comprising amino acids 2 to 13 to retain GalR2 activity in these species. Calcium imaging was used to define receptor activity.

cynomolgus GalR2 = experiment: Calcium assay at orthologue receptor; type: cell-based, Macaca fascicularis; conditions: Table 8; Calcium assays; mean +/− standard deviation
Excerpt: as §1

GalR1 [3] = molecular target: T2, GalR1; experiment: β-arrestin recruitment, PathHunter CHO-K1 GALR1 cells; type: cell-based; conditions: for Emax: CHO-K1, 1.5 h, read-out: GalR1 Beta Arrestin IA (%)
Procedure: (§2) Ligands were prepared at half log dilutions using cell plating reagent 2. 5 μl of each ligand was added to cells and plates incubated at 37° C. for 90 minutes. DiscoverX PathHunter detection kit (DiscoverX, USA) was added to cells as described my manufacturer's guidelines and plates incubated for 60 minutes at room temperature in the dark. Chemiluminescent signal was measured using the PHERAstar FS (BMG, Germany).

GALR2 [4] = molecular target: T1, GALR2; experiment: β-arrestin recruitment, PathHunter CHO-K1 GALR2 cells; type: cell-based; conditions: for GalR2 Beta Arrestin, mean pEC50: Table 2, mean +/− standard deviation, n ≥ 3
Procedure: as §2

[5] = Table 3, mean +/− standard deviation, n ≥ 3, highest concentration 1 μM (galnon 100 μM)
[6] = maximum response at highest concentration tested (1 μM, except galnon at 100 μM), relative to galanin

Compound: Gal2-13FC PA4: Gal2-13 FC fusion with PAPAPAPA linker; SEQ ID NO: 37
- GalR2 activity (calcium assay), linker variants (GALR2 [1]): 6.8 +/− 0.1
- GalR1 activity (cAMP assay), linker variants (GalR1 [2]; mean +/− standard deviation): 6.1 +/− 0.0

Compound: CC(C)C[C@H](NC(=O)CNC(=O)[C@H](CC(N)=O)NC(=O)[C@H](CCCCN)NC(=O)[C@H](CC(=O)O)NC(=O)[C@H](CO)NC(=O)[C@H](Cc1ccccc1)NC(=O)[C@H](CO)NC(=O)[C@H](CCCNC(=N)N)NC(=O)[C@H](Cc1c[nH]cn1)NC(=O)[C@H](CC(N)=O)NC(=O)CNC(=O)[C@@H](NC(=O)[C@H](C)NC(=O)[C@H](Cc1c[nH]cn1)NC(=O)[C@@H]1CCCN1C(=O)CNC(=O)[C@H](CC(C)C)NC(=O)[C@H](CC(C)C)NC(=O)[C@H](Cc1ccc(O)cc1)NC(=O)CNC(=O)[C@H](C)NC(=O)[C@H](CO)NC(=O)[C@H](CC(N)=O)NC(=O)[C@H](CC(C)C)NC(=O)[C@@H](NC(=O)[C@H](Cc1c[nH]c2ccccc12)NC(=O)CN)[C@@H](C)O)C(C)C)C(=O)N[C@H](C(=O)N[C@@H](CO)C(=O)O)[C@@H](C)O [Galanin 1-30 (human), reference compound]
- pEC50 (mouse GalR2): 9.00
- Cynomolgus GalR2 activity (cynomolgus GalR2): 9.6 +/− 0.2

Compound: Gal2-13FC GGS: Gal2-13 FC fusion with GGS linker; SEQ ID NO: 33
- GalR2 activity (calcium assay), linker variants (GALR2 [1]): 6.4 +/− 0.1
- GalR1 activity (cAMP assay), linker variants (GalR1 [2]; mean +/− standard deviation): 5.3 +/− 0.1

Compound: Gal2-13FC GGS2: Gal2-13 FC fusion with GGSGGS linker; SEQ ID NO: 34
- GalR2 activity (calcium assay), linker variants (GALR2 [1]): 6.4 +/− 0.0
- GalR1 activity (cAMP assay), linker variants (GalR1 [2]; mean +/− standard deviation): 5.5 +/− 0.2

Compound: CC[C@H](C)[C@H](NC(=O)[C@H](C)NC(=O)[C@H](Cc1c[nH]cn1)NC(=O)[C@@H]1CCCN1C(=O)CNC(=O)[C@H](CC(C)C)NC(=O)[C@H](CC(C)C)NC(=O)[C@H](Cc1ccc(O)cc1)NC(=O)CNC(=O)[C@H](C)NC(=O)[C@H](CO)NC(=O)[C@H](CC(N)=O)NC(=O)[C@H](CC(C)C)NC(=O)[C@@H](NC(=O)[C@@H](N)Cc1c[nH]c2ccccc12)[C@@H](C)O)C(=O)N[C@@H](CC(=O)O)C(=O)N[C@@H](CC(N)=O)C(=O)N[C@@H](Cc1c[nH]cn1)C(=O)N[C@@H](CCCNC(=N)N)C(=O)N[C@@H](CO)C(=O)N[C@@H](Cc1ccccc1)C(=O)N[C@@H](Cc1c[nH]cn1)C(=O)N[C@@H](CC(=O)O)C(=O)N[C@@H](CCCCN)C(=O)N[C@@H](Cc1ccc(O)cc1)C(=O)NCC(=O)N[C@@H](CC(C)C)C(=O)N[C@@H](C)C(N)=O [Galanin 2-29 (rat), reference compound]
- Emax (GalR1 [3]): 67.2%
- Emax (GalR1 [2]): 90.8%

Compound: Gal2-24FC: galanin 2-24, AEAAAKEAAAKA linker, human IgG1 FC; SEQ ID NO: 27
- GalR2 Beta Arrestin, mean pEC50 (GALR2 [4]): 7.6 +/− 0.0
- GalR2 Calcium, mean pEC50 (GALR2 [1]): 6.9 +/− 0.3
- GalR2 activity (calcium assay), warhead length (GALR2 [1]): 6.9 +/− 0.3

Compound: Gal1-30FC: galanin 1-30 fused to human IgG1 FC, mature chimeric protein SEQ ID NO: 23
- GalR2 Beta Arrestin, mean pEC50 (GALR2 [4]): 5.7 +/− 0.4
- GalR1 Beta Arrestin pEC50 (GalR1 [3]; [5]): 5.72 +/− 0.40
- GalR1 Beta Arrestin IA (%) (GalR1 [3]; [6]): 88.1 +/− 7.1%
- GalR2 Calcium, mean pEC50 (GALR2 [1]): 6.4 +/− 0.3
- GalR1 cAMP pEC50 (GalR1 [2]; [5]): 8.4 +/− 0.2
- GalR1 cAMP IA (%) (GalR1 [2]; [6]): 93.4 +/− 11.6%

Compound: GWTLNSAGYLLGPQPPGFSPFR-NH2 (C-terminus assumed) [M617, reference compound]
- Emax (GalR1 [3]): 99%
- Emax (GalR1 [2]): 90.1%

Compound: Gal2-13FC (ALA-12): Gal2-13FC with alanine at position 12; SEQ ID NO: 61
- activation of GalR2 in vitro (in words) (GALR2 [4]; positions 12 and 13 study, FIG. 2 / Table 4): failed to activate GalR2

Compound: Gal2-13FC NL: Gal2-13 FC fusion with no linker; SEQ ID NO: 36
- GalR2 activity (calcium assay), linker variants (GALR2 [1]): 7.3 +/− 0.1
- GalR1 activity (cAMP assay), linker variants (GalR1 [2]; mean +/− standard deviation): 5.9 +/− 0.2

Compound: Gal2-18FC: galanin 2-18, AEAAAKEAAAKA linker, human IgG1 FC; SEQ ID NO: 26
- GalR2 Beta Arrestin, mean pEC50 (GALR2 [4]): 7.3 +/− 0.1
- GalR2 Calcium, mean pEC50 (GALR2 [1]): 6.7 +/− 0.1
- GalR2 activity (calcium assay), warhead length (GALR2 [1]): 6.7 +/− 0.1

Compound: Cc1cc(=O)oc2cc(NC(=O)[C@H](CCCCN)NC(=O)[C@H](CC3CCCCC3)NC(=O)OCC3c4ccccc4-c4ccccc43)ccc12 [Galnon, reference compound] (Fmoc-[Cha]-Lys-{AMC})
- pEC50 (GALR2 [4]): 3.80
- pEC50 (GalR1 [3]): < 6.00
- Emax (GalR1 [3]): 40.1%
- pEC50 (GALR2 [1]): 4.70
- pEC50 (GalR1 [2]): < 6.00
- Emax (GalR1 [2]): 2.9%

Compound: RGRGNWTLNSAGYLLGPVLPPPALALA-NH2 (C-terminus assumed) [M1145, reference compound]
- Emax (GalR1 [3]): 24.5%
- Emax (GalR1 [2]): 86.7%
